Results: patent publication US20200087363A1 (IMMATICS BIOTECHNOLOGIES, published 2020)

What follows are binders tested against T1, HLA-B*44:05 (human) (assay: UV peptide exchange, anti-b2m ELISA).
T1 construct: also called peptide-receptive MHC class I molecule
Method in brief: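 Peptide-receptive HLA-B*44:05 monomers after UV-induced exchange were diluted 100-fold and captured on streptavidin-coated plates for 1 h at 37 °C. Bound complexes were detected with 2 µg/ml HRP-anti-β2m (1 h, 37 °C) and TMB, read at 450 nm. β2m signal reflects peptide-stabilized complex yield.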

peptide exchange yield | Binder
20 to 50% | EEGRVYVY
> 75% | QEVNISLHY
10 to 20% | YEWEPFAEV
50 to 75% | EEPKIDFRVY
20 to 50% | EDASLMGLY
> 75% | RELLDFSSW
50 to 75% | QELSSIRQF
50 to 75% | AENPLNIFYI
20 to 50% | EEIENLQAQF
20 to 50% | IEYENQKRL
50 to 75% | LEWQNSSSM
50 to 75% | EEINQGGRKY
> 75% | TEFQQIINL
20 to 50% | DEIRVFGY
20 to 50% | EMREERKF
> 75% | SEVLLTSISTF
50 to 75% | HELESENKKW
20 to 50% | DEIFTNDRRW
> 75% | IEQGRVVLW
20 to 50% | RLWPEPENW
20 to 50% | DEVRFFKGNKY
20 to 50% | HENGVLTKF
20 to 50% | EECDKAYSF
> 75% | SETAVVNVTY
50 to 75% | KEWEREKAVSL

peptide exchange yield | Binder
> 75% | SDDLRNVTW
50 to 75% | KELEATKQYL
50 to 75% | SEVEYINKY
> 75% | AEQEIMKKV
50 to 75% | TEFAVKLKI
> 75% | NESGKAFNY
50 to 75% | SEHLFGTSY
20 to 50% | TEAVLNRY
50 to 75% | AELMDKPLTF
50 to 75% | SEQHSLPVF
50 to 75% | LENPHVQSV
50 to 75% | NEVKEIKGY
50 to 75% | REESDWHYL
50 to 75% | AEMKFYVVI
50 to 75% | VEVIPEGAML
20 to 50% | SENKKWVEF
50 to 75% | TEIMEKTTL
> 75% | SEFDLEQVW
50 to 75% | SESSSFLKV
50 to 75% | MEQQSQEY
50 to 75% | SETPTLQGL
> 75% | DEMENLLTY
> 75% | RELVHMINW
20 to 50% | AEPPILYSEY
50 to 75% | KEKVPGITI

peptide exchange yield | Binder
> 75% | AETEEGIYW
20 to 50% | SETSTGTSV
50 to 75% | QEDELVKIRKY
> 75% | LEQASRIWSW
50 to 75% | EEMLENVSL
50 to 75% | FELECPVKY
> 75% | YEQLLKVVTW
50 to 75% | SEPQITVNF
> 75% | KELEERMLHW
50 to 75% | AEYQAAILHL
> 75% | REKDLPNYNW
50 to 75% | GELAPSHGL
50 to 75% | EECGKAFKKF
> 75% | REYEYDLKW
10 to 20% | RRHPSFKRF
> 75% | LEWQHPSSW
50 to 75% | NEFRRKLTF
> 75% | AENPLNIFY
> 75% | SEADWLRFW
50 to 75% | EECDKAFHF
> 75% | AEKNRRDAETW
20 to 50% | SEGTLPYSY
50 to 75% | TEFHGGLHY
